# Assay results: the DeepSol protein solubility set
# Assay: soluble on expression in E. coli; label from the status in PepcDB or PDB records
row,Sequence,soluble on expression in E. coli
1,MGSDKIHHHHHHMIQVLNLTTPETIKNYLHEALGKIEPFEQCILLDYPDHANIGDNLIWLGELLYLHNTRQSQITYNASVENFSVQEMDKCKSSCEIPIFLHGGGNLGDLWLKFQNFREYIISEYKENPIIIFPQSIYFQEEDNLIKAARIFNSHPNLTIFVRDNYSYQLATNYFSNCRIIKSPDAAFQLVNTPGIAAAYQNKSSILYHFRNDKELNLNQAGSPHTLDLPNLIVEDWASYKYESDSYKELPHNAVIQSFARVFHGWEQGKLFPDEWITRQIWKYFHPYTTAFSQSYNPESHRKAWSYMYQGVYQFKQHRLIITNRLHGHILSTLMGIPHIFLPNSYHKNEAFYEAWTYQIPFCRFVKDPEKIADTVRELIEISEIAKN,not soluble
2,MANTGSLVLLRHGESDWNALNLFTGWVDVGLTDKGQAEAVRSGELIAEHDLLPDVLYTSLLRRAITTAHLALDSADRLWIPVRRSWRLNERHYGALQGLDKAETKARYGEEQFMAWRRSYDTPPPPIERGSQFSQDADPRYADIGGGPLTECLADVVARFLPYFTDVIVGDLRVGKTVLIVAHGNSLRALVKHLDQMSDDEIVGLNIPTGIPLRYDLDSAMRPLVRGGTYLDPEAAAAGAAAVAGQGRGGVPRGAAALEHHHHHH,soluble
3,SLHIQRKSTMSKCSADETPVCCCMDVGTIMDNSDCTASYSRVFANRAEAEQTLAALTEKARSVESEPCKITPTFTEESDGVRLDIDFTFACEAEMLIFQLGLR,soluble
4,MQLLITGGTGLIGRHLIQRLQLLSHHITVLTRDPERARGVLGNQVEYWSTLSNITSLNDFDGVINLAGEPIADKRWTPQQKQRLAQSRWSITEQLATLIKASSEPPTVFISGSAVGYYGDQGEALVTEGESPVDEFTHHLCTRWEALAQSAESDKTRVCLLRTGIVLSAQGGALAKMLPIFRLGLGGPMGSGKQYMPWIHIDDMVNGIIYLLDQPILRGPFNMVAPYPVHNEQFSAMLAHVLDRPGFLRAPAFAMKLLMGEASTLVLGGQRAIPQRLEAAGFGFRFFELEEALQDVTKKPGLEHHHHHH,soluble
5,MLGAMFRAGTPMPPNLNSQGGGHYFIDRDGKAFRHILNFLRLGRLDLPRGYGETALLRAEADFYQIRPLLDALRELEASQGTPAPTAALLHADVDVSPRLVHFSARRGPHHYELSSVQVDTFRANLFCTDSECLGALRARFGVASGDRAEGSPHFHLEWAPRPVELPEVEYGRLGLQPLWTGGPGERREVVGTPSFLEEVLRVALEHGFRLDSVFPDPEDLLNSRSLRFVRH,soluble
6,MRIEEFDYELPEELIAKYPAVPRHSARLMVLNRKDQSIKHDTFINLPDYLEEGDLLVFNNTKVIPARLYGRKPTGGRVEVVLTDFIKPDEWKALIGGKKIRPGLVIEVAPDFKVEVLEHIEEGKFRVKLLGEEPLKLIDKYGHIPIPPYLKREEEPIDRVYYQTIFAKEKGAVASPTASLHFSEELLEKLKEKGINFAFITLHVSYGTFKPVKVERVEEHRVDPEYVKIPKETVEKIKETKEKGKRVVAVGTTVVRALETKPFEPFEGWTDLYIYPGFKFKVVDAMITNFHLPRSSLLILVSAFAGREFILKAYREAVEKRYRFYSYGDGMLIL,soluble
7,MSLLAYTYIEHGKFELREKPEPKITDARDAIVRVTLGSICTSDLHIKHGSVPRAVPGITVGHEMVGVVEEVGAEVTSVRPGDRVTVNVETFCGECFFCHHGYVNNCTDPNGGWALGCRIDGGQAEYVRVPYADQGLNRIPDTVSDEQALFVGDVLATGFWATRISEITEKDTILLIGAGPTGICTLLCSMLKNPKRIIVCEKSPERIQFVREHYPDVLITTPENCKEFVLQNSDHSGADVVLEVAGTEDSFRMAWDCARPNAIVTIVALYDKPLLFPLPEMYGKNLTFKTGGVDGCDCAEILSLIEEGKIDTTPLITHRCSLNEIEEAYRIFENKLDGVIKVAIVCQTESEGHHHHHH,soluble
8,MLYPNERKSSVHAIPYQDQLKQVQSAVDEFQKANGGLLPIQTKDMSTPLYQKYPIDFNRLAPRYIAEPPSTAFESGGDYQYVLVDVENDPTVKLIDLKMAEKIRDVKLRIQMYRQEHQYPPYKDVLSRDLFTLDEKKLGDGSSLTVTSPISGNSLPLMIDGDGEIYADYRTELASCLKKSKKTFKPGTEIQDMIWHETPFVPAFSVKYTVNDKQEPVFLENDMKKELEHHHHHH,soluble
9,MGSDKIHHHHHHMEIKKFIENYREAFGEYAELPIVFWYSDILENETGKVNGCFFKSMSKVRGGNTISLNAETIGCGGGKFYTGFTDMPEHVPTFVSLKERYKQTPEMVKSFIEQLGVPRAEKEYLHFARIDKVETFDHLEGILFLANPDILSGLTTWAFFDNNKEDTVISTFGSGCSSVVTQTILENRKGGYRTFIGFFDPSVRPYFEADILSYTIPMSRFKVMYETMRSSCLFDTHAWGKIRERNHNSYKE,not soluble
10,MSLGNREILYKNLFYNAELFTCRFPELSAALGLDSEIGIKQFAERIPESYYLEEAKLKETDKKIFTARINGKYLHSKYNPISEAEKNISLDFFEDKKAKSSCVFCGLGLGYAQELYAKKYPKSSLIIIEPDLFVFFLFLQSRPLDDFFMHENLILLLGLYPKDVLDFFESKSFFDTPIFKIQSLIDVSSSWFSEFEALKKRRNEKTNLNKNTLKKFGKLWLKNFLKNIKQTEGLFGINKIENIFASCPALIIAAGPGLDDTINLVKENEDKFIIIAADTAVRACHRHGLKPDFILLMDAQYWNYLHLSDLDISDSILITESSVYPAVFRLKTRAKFLCTSMFPLAQYIEKLIGEKGKLVTGGSVATACWDFARILGCSEIIFAGLDLAFPDFQTHFKGSRFEEDVNAFSNRFFPSETASHLSLYSASPQLKEGYEGKVLSDKRMQMYAWWFESKIAEFPDIKTYNLLPRGLKIPNMPALSMEEFLLKAKASPLSKKIKIEKMSALFNLSSYKKEGSFSSPNLSSALKELSTDLEKTMKLAREGMDICLNLLDSLKTGKPLEDSIIKKVWKTEGHHHHHH,soluble
11,MGHHHHHHSHMNGFSTEEDSREGPPAAPAAAAPGYGQSCCLIEDGERCVRPAGNASFSKRVQKSISQKKLKLDIDKSVRHLYICDFHKNFIQSVRNKRKRKTSDDGGDSPEHDTDIPEVDLFQLQVNTLRRYKRHYKLQTRPGFNKAQLAETVSRHFRNIPVNEKETLAYFIYMVKSNKSRLDQKSEGGKQLE,soluble
12,MSNSQAGPGASVRRVLAVIPARGGSKGVPAKNLAPVGGVPLVVRAVRECLAARLVTDVVVSTDDQAIAAAAREAGAEVVLRPAAIAGDTATSEAAVLHAMDAHEALHGAAVDVVLLVQCTSPFLVREDVDGVAGAVVEDGADTAVTVAPFHGFVWRDGADEPGGADGGHGVNHDKAYRPRRQDRPQDLLETGAAYAMAAPGFRKHRHRFFGRTDLVRTDPARVLEIDDPHDLARARALAPHFDTARPGALPTAADIDAVVLDFDGTQTDDRVLIDTDGREFVSVHRGDGLGIAALRRSGLTMLILSTEVNPVVAARARKLKLPVLHGIDRKDLALKQWCEEQGIAPERVLYVGNDVNDLPCFALVGWPVAVASAHDAVRGAARAVTTVPGGEGAVREIAAWLLGPSLDALGPASETTPTLTQSKLEHHHHHH,soluble
13,MSLSAAEALTRIDRFVCDIKETQYGDGLHVFGAGDHGTGEIDGLIAALSARFVPPGPSGSPYRGRSDVRPTGRNLFTTDPRAVPSRAAYTQGVKLAEELLRKHLQDHGDWPKGLVMDMWGSATIRTAGEEFAMALHLAGLSPRWDDGSDRVSGFDILPLALLNRPRIDVTLRVSGLFRDMFPGLAQLFETAIAKLAERPETAADNPYLVQTPRVFGPRPGSYGLGIGTAMDDYSDEARTAAGEAWLAASSYAIDARGEITYARDALETQLTRADSFVHLQDLPETDLLMAEDYAAHEAGFAAAMQRLGKGGAAALYHLDATRPDQPRARTLTEELARVVRARAANPDWATGMMAHGFRGAAEIAATLDHLAAFAHLAGVVPDHLFDAMFDATLGRDDLVDFMQDANPQALAALRARFDALHRAGLWTSRRNSVLAELGTPAEGHHHHHH,soluble
14,MSGDDDIPEGLEAINLKMNATTDDSLESTRRMLALCEESKEAGIKTLVMLDDQGEQLERCEGALDTINQDMKEAEDHLKGMEKCCGLCVLPWNKTDDFEKTEFAKAWKKDDDGGVISDQPRITVGDSSMGPQGGYITKITNDAREDEMDENVQQVSTMVGNLRNMAIDMSTEVSNQNRQLDRIHDKAQSNEVRVESANKRAKNLITK,not soluble
15,LFSYKSTMWQFINKVTSDRINILNQYYEKFGIHILPQQVTNYRSAGIIVMDNIYVT,not soluble
16,MGSDKIHHHHHHMAEKTFINRLQLTDFRNYGSASLRLDGRHVVLTGNNGSGKTNLMEAVSFLSPGRGLRRAVLSDVARAGAASGFSIFASLEGMAGDVELGTGSEVLDETAVRRLRINGASVRSVDELTDHLRVLWLTPAMDGLFTGSSSERRRFLDRLVLSIDPQHGRRASDFERAMRSRNKLLSEGRFDASWLAGIEQQMAALGIAMALARQEMMRLLAALIEQRREPETFPGADLMLSGFMDEHAGTAAIDLEDTYRDSLAGSRGRDAAAGRTLEGPHRSDLLVRHREKDMEAERCSTGEQKALLIGLILAHAELVATMTGFAPILLLDEIAAHLDEGRRAALFDRIDVLGGQAFMTGTDAQMFASLGDRAQFVTVDDGHLSL,not soluble
17,MGSDKIHHHHHHMVVLMTKPGTSDFVWNGIPLSMELNLWNIKEYSGSVAMKFDGEKITFDADIQNLSPKEPERYVLGYPEFYYGYKPWENHTAEGSKLPVPVSSMKSFSVEVSFDIHHEPSLPLNFAMETWLTREKYQTEASIGDVEIMVWFYFNNLTPGGEKIEEFTIPFVLNGESVEGTWELWLAEWGWDYLAFRLKDPVKKGRVKFDVRHFLDAAGKALSSSARVKDFEDLYFTVWEIGTEFGSPETKSAQFGWKFENFSIDLEVRE,not soluble
18,MEPWKQCAQWLIHCKVLPTNHRVTWDSAQVFDLAQTLRDGVLLCQLLNNLRAHSINLKEINLRPQMSQFLCLKNIRTFLTACCETFGMRKSELFEAFDLFDVRDFGKVIETLSRLSRTPIALATGIRPFPTEESINDEDIYKGLPDLIDETLVEDEEDLYDCVYGEDEGGEVYEDLMKAEEAHQPKCPENDIRSCCLAEIKQTEEKYTETLESIEKYFMAPLKRFLTAAEFDSVFINIPELVKLHRNLMQEIHDSIVNKNDQNLYQVFINYKERLVIYGQYCSGVESAISSLDYISKSKEDVKLKLEECSKRANNGKFTLRDLLVVPMQRVLKYHLLLQELVKHTTDPTEKANLKLALDAMKDLAQYVNEVKRDNETLREIKQFQLSIENLNQPVLLFGRPQGDGEIRITTLDKHTKQERHIFLFDLAVIVCKRKGDNYEMKEIIDLQQYKIANNPTTDKENKKWSYGFYLIHTQGQNGLEFYCKTKDLKKKWLEQFEMALSNIRPDYADSNFHDFKMHTFTRVTSCKVCQMLLRGTFYQGYLCFKCGARAHKECLGRVDNCGRVNSGEQGTLKLPEKRTNGLRRTPKQVDPGLPKMQVIRNYSGTPPPALHEGPPLQLQAGDTVELLKGDAHSLFWQGRNLASGEVGFFPSDAVKPCPCVPKPVDYSCQPWYAGAMERLQAETELINRVNSTYLVRHRTKESGEYAISIKYNNEAKHIKILTRDGFFHIAENRKFKSLMELVEYYKHHSLKEGFRTLDTTLQFPYKEPEHSAGQRGNRAGNSLLSPKVLGIAIARYDFCARDMRELSLLKGDVVKIYTKMSANGWWRGEVNGRVGWFPSTYVEEDE,soluble
19,HYTSVPNIMKVIKPLFLDKLNQSFLDAYDDYTKLENLLTRIGKIKFFDPACGSGNFLIITYKELRRMEINIIKRLQELLGEYLYVPSVTLSQFYGIEIEDFAHDVAKLSLWIAEHQMNEELKNEVHNAVRPTLPLHTAGDIRCANAIRVEWTEVCPAQGSEEVYVFGNPPYLGSKKQNKEHKSDMLSIFGKVKNGKMLDYISAWFYFGAKYASTTNAKVAFVSTNSVTQGEQVSILWNELFKFGI,not soluble
20,MSLERQEHSPLILLGEDEKFQATIVKDVLERKNFDVRIAPNGKVAYEMFCENRLFQLVIVDVFMPVVDGLRSVKLIRQYESNHQIERCPIIICSGNESIIRSGNNSQDTGGDAFVSKPFRPSLIDLVYKLIGKKEGHHHHHH,not soluble
